Data on one molecule can be found in patent US20170362293A1 (GENEXINE, published 2017).

The target of this test is GLP-2R. Briefly: cell-based or functional assay.

B1: GLP-2-hyFc9 fusion polypeptide (Fc fusion)
chain: HGDGSFSDEMNTILDNLAARDFINWLIQTKITDAKATTAPATTRNTGRGGEEKKKEKEKEEQEERETKTPECPSHTQPLGVFLFPPKPKDTLMISRTPEVTCVVVDVSQEDPEVQFNWYVDGVEVHNAKTKPREEQFNSTYRVVSVLTVLHQDWLNGKEYKCKVSNKGLPSSIEKTISKAKGQPREPQVYTLPPSQEEMTKNQVSLTCLVKGFYPSDIAVEWESNGQPENNYKTTPPVLDSDGSFFLYSRLTVDKSRWQEGNVFSCSVMHEALHNHYTQKSLSLSLGK
For the molecule B1, the “membrane depolarization induced by increased intracellular cAMP in GLP-2R-expressing 293 cells; activity relative to GLP-2-2G peptide set at 100%” value worked out at 98%.
